The values below come from article PMC10247153.

Holding throughout (assay): EMSA
For orientation: Mobility shift assays separate free from complexed probe on a gel.

Experiment [1] addresses H3K4me3 187 bp mononucleosome, P68431. The note with it: chain shown with the change;; parent: 7.3 µM.
For experiment [2], the target named is H3K4me3 147 bp mononucleosome, P68431. The note with it: chain shown with the change;; parent: 6.9 ± 0.8.
Experiment [3] has as its target unmodified 147 bp mononucleosome, P68431. The note with it: chain shown with the change;; parent: ≥ 12.5 ± 1.2.

B1: KDM5C^1–839, P41229-1 D87G (protein)
chain: MEPGSDDFLPPPECPVFEPSWAEFRDPLGYIAKIRPIAEKSGICKIRPPADWQPPFAVEVDNFRFTPRIQRLNELEAQTRVKLNYLGQIAKFWEIQGSSLKIPNVERRILDLYSLSKIVVEEGGYEAICKDRRWARVAQRLNYPPGKNIGSLLRSHYERIVYPYEMYQSGANLVQCNTRPFDNEEKDKEYKPHSIPLRQSVQPSKFNSYGRRAKRLQPDPEPTEEDIEKNPELKKLQIYGAGPKMMGLGLMAKDKTLRKKDKEGPECPPTVVVKEELGGDVKVESTSPKTFLESKEELSHSPEPCTKMTMRLRRNHSNAQFIESYVCRMCSRGDEDDKLLLCDGCDDNYHIFCLLPPLPEIPKGVWRCPKCVMAECKRPPEAFGFEQATREYTLQSFGEMADSFKADYFNMPVHMVPTELVEKEFWRLVNSIEEDVTVEYGADIHSKEFGSGFPVSDSKRHLTPEEEEYATSGWNLNVMPVLEQSVLCHINADISGMKVPWLYVGMVFSAFCWHIEDHWSYSINYLHWGEPKTWYGVPSLAAEHLEEVMKKLTPELFDSQPDLLHQLVTLMNPNTLMSHGVPVVRTNQCAGEFVITFPRAYHSGFNQGYNFAEAVNFCTADWLPAGRQCIEHYRRLRRYCVFSHEELICKMAACPEKLDLNLAAAVHKEMFIMVQEERRLRKALLEKGITEAEREAFELLPDDERQCIKCKTTCFLSALACYDCPDGLVCLSHINDLCKCSSSRQYLRYRYTLDELPAMLHKLKVRAESFDTWANKVRVALEVEDGRKRSLEELRALESEARERRFPNSELLQQLKNCLSEAEACVSRALGLVSGQEAG
By Kd is commonly meant the equilibrium constant for the complex coming apart. Consider B1, for which the Kd in experiment [1] amounted to 1300 nM; in experiment [2], 2300 nM; in experiment [3], 1800 nM.

B2: KDM5C^1–839, P41229-1 A388P (protein)
chain: MEPGSDDFLPPPECPVFEPSWAEFRDPLGYIAKIRPIAEKSGICKIRPPADWQPPFAVEVDNFRFTPRIQRLNELEAQTRVKLNYLDQIAKFWEIQGSSLKIPNVERRILDLYSLSKIVVEEGGYEAICKDRRWARVAQRLNYPPGKNIGSLLRSHYERIVYPYEMYQSGANLVQCNTRPFDNEEKDKEYKPHSIPLRQSVQPSKFNSYGRRAKRLQPDPEPTEEDIEKNPELKKLQIYGAGPKMMGLGLMAKDKTLRKKDKEGPECPPTVVVKEELGGDVKVESTSPKTFLESKEELSHSPEPCTKMTMRLRRNHSNAQFIESYVCRMCSRGDEDDKLLLCDGCDDNYHIFCLLPPLPEIPKGVWRCPKCVMAECKRPPEAFGFEQPTREYTLQSFGEMADSFKADYFNMPVHMVPTELVEKEFWRLVNSIEEDVTVEYGADIHSKEFGSGFPVSDSKRHLTPEEEEYATSGWNLNVMPVLEQSVLCHINADISGMKVPWLYVGMVFSAFCWHIEDHWSYSINYLHWGEPKTWYGVPSLAAEHLEEVMKKLTPELFDSQPDLLHQLVTLMNPNTLMSHGVPVVRTNQCAGEFVITFPRAYHSGFNQGYNFAEAVNFCTADWLPAGRQCIEHYRRLRRYCVFSHEELICKMAACPEKLDLNLAAAVHKEMFIMVQEERRLRKALLEKGITEAEREAFELLPDDERQCIKCKTTCFLSALACYDCPDGLVCLSHINDLCKCSSSRQYLRYRYTLDELPAMLHKLKVRAESFDTWANKVRVALEVEDGRKRSLEELRALESEARERRFPNSELLQQLKNCLSEAEACVSRALGLVSGQEAG
As to B2, the Kd is 1800 nM in experiment [1], 3700 nM in experiment [2] and 3100 nM in experiment [3].
